# Measured values reported in the DeepSol protein solubility set.
# Test: soluble on expression in E. coli; label from the status in PepcDB or PDB records
row,Sequence,soluble on expression in E. coli
1,MEGVKKIKNPSTVKDELLELMFRIYRSTNGKYPALEWVKRKPNPNDFNGFREVYEPFLKFRLSQEFDELYTYQKDNRIIGTIALVYKRIKEKGIWWVPEELMNEKVGLIEFFVVDPEFQGKGIGSTLLEFAVKRLRSLGKDPYVVTFPNLEAYSYYYMKKGFREIMRYKEFVILKFNHKKFQLEHHHHHH,soluble
2,MAKKTSSKGKLPPGPFPLPIIGNLFQLELKNIPKSFTRLAQRFGPVFTLYVGSQRMVVMHGYKAVKEALLDYKDEFSGRGDLPAFHAHRDRGIIFNNGPTWKDIRRFSLTTLRNYGMGKQGNESRIQREAHFLLEALRKTQGQPFDPTFLIGCAPCNVIADILFRKHFDYNDEKFLRLMYLFNENFHLLSTPWLQLYNNFPSFLHYLPGSHRKVIKNVAEVKEYVSERVKEHHQSLDPNCPRDLTDCLLVEMEKEKHSAERLYTMDGITVTVADLFFAGTETTSTTLRYGLLILMKYPEIEEKLHEEIDRVIGPSRIPAIKDRQEMPYMDAVVHEIQRFITLVPSNLPHEATRDTIFRGYLIPKGTVVVPTLDSVLYDNQEFPDPEKFKPEHFLNENGKFKYSDYFKPFSTGKRVCAGEGLARMELFLLLCAILQHFNLKPLVDPKDIDLSPIHIGFGCIPPRYKLCVIPRSHHHH,soluble
3,MLSEGTHLRPYETLGAHADTMDGVTGTRFSVWAPNARRVSVVGQFNYWDGRRHPMRLRKESGIWELFIPGAHNGQLYKYEMIDANGNLRLKSDPYAFEAQMRPETASLICGLPEKVVQTEERKKANQFDAPISIYEVHLGSWRRHTDNNFWLSYRELADQLVPYAKWMGFTHLELLPINEHPFDGSWGYQPTGLYAPTRRFGTRDDFRYFIDAAHAAGLNVILDWVPGHFPTDDFALAEFDGTNLYEHSDPREGYHQDWNTLIYNYGRREVSNFLVGNALYWIERFGIDALRVDAVASMIYRDYSRKEGEWIPNEFGGRENLEAIEFLRNTNRILGEQVSGAVTMAEESTDFPGVSRPQDMGGLGFWYKWNLGWMHDTLDYMKLDPVYRQYHHDKLTFGILYNYTENFVLPLSHDEVVHGKKSILDRMPGDAWQKFANLRAYYGWMWAFPGKKLLFMGNEFAQGREWNHDASLDWHLLEGGDNWHHGVQRLVRDLNLTYRHHKAMHELDFDPYGFEWLVVDDKERSVLIFVRRDKEGNEIIVASNFTPVPRHDYRFGINQPGKWREILNTDSMHYHGSNAGNGGTVHSDEIASHGRQHSLSLTLPPLATIWLVREAE,soluble
4,MGSDKIHHHHHHMLNMDLSQRVVINTADLEWQNSPAAGVLRKRLAREEAERGHATSIVKYQAGAKFNSHPHPLGEEILVLDGVFSDETGDYPAGTYLRNPEGFVHAPFSVQGCTLLVKLHQFQTTDSQQVAINTNETQWLPGHGQLQVMPLHQHGTESTALVKWPAGTHFQPHRHFGGEEIYVISGVFIDELGRYPAGTWIRSPHLSQHNPYVEQDTVILVKVGHL,not soluble
5,MDKVKAARSLIQEALAQSQNPCFTCSFQAEDVVVLHLLLKERPEIPVLFLDTGYHFPEVYAYRDELQKRLGFRLVNLTPALSREEQERLYGKLYETDPGRCCALRKVEPLFAALEAHDTWFTGLRREQSPTRRNLEPQEEARLPSGHRLKKVNPLYDWTLKEVFAYLAVEDLPYLPLYDQGYLSIGCAPCTAKPLDPSDPRSGRWAGKGKLECGIHLHGKEG,soluble
6,MSLKLILNTQINTKLREIDISNETELIMSNDFPVNKIAMTGKVGYADMQGQRGTMEDALIVDSNIGIYAIFDGHGGHIVSSLSAQRIHERLQSLQNGSEFRELITQAVDSVVGELKEKKVLGGSTMCLVRVGQDKIEVANIGDSRCVAILKDGTQRQLSNDHKPTYRPEVERIREKGSFVSKGRVQGRLAVARAIGDFAVLGIESVIEFTEIDKDIVSRIVIGCDGLYDVVSNEDCLKICNENQSAVTTAYKLRDRAFQRGSTDNISVIVVDCLEGHHHHHH,soluble
7,MSLKYSFIAQHKKTWPVGMMCQLMGVTSSGYYSYQKRKSTKTNNEPEHEELLEWVKKISESSKFSYGNRRIRKALNALGYPVGRRKTHRLMREAGIFVRYKKKYKVTTNSNHKQPIFDNVLNRKFQVNEPNRAYVSDMTYIPTHEGWLYLTVVIDLFSRKVVGWNMSSRMKADTVCDALTMAIWQRKPKAGLIVHSDRGSQYASKQYRSLLNQHGLVGSMSKKGDCWDNSVAESFFSRLKDELVHWRNYQTRREAKQDILDYMTMFYNNQRLHSSLDYLSPNQFENRYWGLMKKVAEGHHHHHH,not soluble
8,MGHHHHHHSHMPPYPANSVFCKDKVSLCCQVGPDFLGSSAPFSASHSAGITGMSHYAQPVFCSLNKGRTVW,not soluble
9,MSSHHHHHHMQFDVTIEIPKGQRNKYEVDHETGRVRLDRYLYTPMAYPTDYGFIEDTLGDDGDPLDALVLLPQPVFPGVLVAARPVGMFRMVDEHGGDDKVLCVPAGDPRWDHVQDIGDVPAFELDAIKHFFVHYKDLEPGKFVKAADWVDRAEAEAEVQRSVERFKAGTH,soluble
10,MAHHHHHHMHPVPQAPYLSSPSPLFPNRGWCWQRPLRIFCPFFSAPLRAASSRRCHRPFLSIRFKKRCCNNPLLLGVVEAILPEPHSPAIPPVILRVFTPPS,not soluble
11,MTELKNDRYLRALLRQPVDVTPVWMMRQAGRYLPEYKATRAQAGDFMSLCKNAELACEVTLQPLRRYPLDAAILFSDILTVPDAMGLGLYFEAGEGPRFTSPVTCKADVDKLPIPDPEDELGYVMNAVRTIRHELKGEVPLIGFSGSPWTLATYMVEGGSSKAFTVIKKMMYADPQALHALLDKLAKSVTLYLNAQIKAGAQAVMIFDTWGGVLTGRDYQQFSLYYMHKIVDGLLRENDGRRVPVTLFTKGGGQWLEAMAETGCDALGLDWTTDIADARRRVGNKVALQGNMDPSMLYAPPARIEEEVATILAGFGHGEGHVFNLGHGIHQDVPPEHAGVFVEAVHRLSEQYHR,soluble
12,MSLADKATIYIIDDDEIFQFITRKSFERLERNDNLFFFLNGEDALSSIKEAISGNKPSPDLIFLDINMPIMDGWDFLAELIKLEGEMKKTPQIYMVSSSIDDKDLIKSKTYNMIKDYIVKPIKDTHIKELLNNLNEGHHHHHH,soluble
13,SKMARASASASLIDGKIYVFGGCPEDADSSNWAEVFDPVYQTWGIFNTPKMAHSINQSVVIEEKKVYAVDEEDQSFSFLPSEGRIWKSGKKDSKVGSRHDWCVIGKLLYCRATRGRILWCQPDELDWKEVKGLEQLQLYLSGTRYIFRRTSDKRPSKTNVKYDIRKISSNSAGNIVIFGNAHIGDPECVELWSAEISMERREGGEIWGKIEWSNVVFKLDPLSNSYSVDVLFSASVHL,soluble
14,MGSDKIHHHHHHMNIVSQLSPVTLSPELIARFTAIVGDKHALTDPLELEAYITEERNLYRGHSPLVLRPGSTEEVVAICKLANEARVALVPQGGNTGLVGGQTPHNGEVVISLKRMDKIREIDTSSNTITVEAGAILQRVQEKAAEVDRLFPLSLGAQGSCTIGGNLSTNAGGTAALAYGLARDMALGVEVVLADGRVMNLLSKLKKDNTGYDLRDLFIGAEGTLGIITAATLKLFPKPRAVETAFVGLQSPDDALKLLGIAQGEAAGNLTSFELIAETPLDFSVRHANNRDPLEARYPWYVLIELSSPRDDARAALESILERGFEDGIVVDAAIANSVQQQQAFWKLREEISPAQKPEGGSIKHDISVPVAAVPQFIEQANAAVVALIPGARPVPFGHLGDGNIHYNVSQPVGADKAEFLARWHDVSQVVFEVVLRLGGSISAEHGIGVMKRDELAEVKDKTAIELMRSIKALLDPHGIMNPGKVV,not soluble
15,DGNEIIGDPLRKAAKLIDKGYIVAIKGIGGIHLACDATREDVVAELRKRIFRPQKPFAIMAKDLETVRTFAYISPEEEEELTSYRRPIVALKKKEPFPLPENLAPGLHTIGVMLPYAGTHYILFHWSKTPVYVMTSANFPGMPMIKDNEEAFEKLRDVADYLLLHNRRIPNRADDSVVRFVDGRRAV,not soluble
16,KPGKQIPTLEDAKKELKIPDQDKEQNGNIARQRHVVNAYAVGRIADEEGLFRFQLDDKGKWGNPQLLVKKVRHMKVRYIYVSGCPEDDDAGKEETFKYTDKFDSAQNAVTPAGVEVLLSSGTDTKIAASSDNHIYAYRIDATIRGGNVCANRTL,not soluble
17,MSLKLPDEEFKLALEVARARIKAKDKFSRSDLWFDLEGLRYATHEVVADYRGRRLKGQGVKSIADVSCGVGIQLIFFAKHGIRSVGIDIDPIKIEFAKRNAEKYGVEVEWVVGDALSPEIIEKVDAEVIFSDPARPPEVPERNLEDLLPSPLKIYEAYKHKTDSFIFDLPPQIRREKVPWKGEFEYIDLFGHVNRLTEGHHHHHH,not soluble
18,GNSIASCADEQPHIGNYRLLKTIGKGNFAKVKLARHILTGREVAIKIIDKTQLNPTSLQKLFREVRIMKILNHPNIVKLFEVIETEKTLYLIMEYASGGEVFDYLVAHGRMKEKEARSKFRQIVSAVQYCHQKRIVHRDLKAENLLLDADMNIKIADFGFSNEFTVGGKLDAFCGAPPYAAPELFQGKKYDGPEVDVWSLGVILYTLVSGSLPFDGQNLKELRERVLRGKYRIPFYMSTDCENLLKRFLVLNPIKRGTLEQIMKDRWINAGHEEDELKPFVEPELDISDQKRIDIMVGMGYSQEEIQESLSKMKYDEITATYLLLGRK,soluble
19,MELTLQKYGSYEKFEQATGGSLLSKTRIWSHVRKYMVKEGCLGEIVVHLTEDLLSRASMTVVNGCPTLTINISTAREHWLEGMLRHEIGTHYFRGINNLQQPWNSWIGRKKHELKPNNPTEEGLASIHSVLFRKDPFLWRAALLYYTVYKASHMSFCELFKDIGKFVKDPNTRWDYCVRAKRGWTDTSEPGCFSKDQVYLDGVLQILRFRESIDFHLLTALGKVSYEDVDRLKELAVTENMRVPHFLHDHSRYMEHLERIMEVNELTDAELKNLI,not soluble
20,MEYKDATHTTATQTVHYVNQDGDKVFDDDTSQTLNYERGVTIDEVTGEVISYGDWTPVDGDEFGSVTSPDKPGYAVDTKVVSGEKPEITNGKDGKVNDVEVTVTYTASNEDATLEHHHHHH,soluble
21,MSLKHLGQTRSALHGSHAVITPETFVRTALAEWPGSAIVLHIAPVVGLGARFVQFTAEMPAGAQATESVYQRFAFVLSGEVDVAVGGETRTLREYDYVYLPAGEKHMLTAKTDARVSVFEKPYQTVEGVQAPGVYWGNERENPGYPFEGDDHLIARKLLPDEPAFDFMVSTMSFAPGASLPYAEVHYMEHGLLMLEGEGLYKLEENYYPVTAGDIIWMGAHCPQWYGALGRNWSKYLLYKDMNRHPLEGGSHHHHHH,soluble
22,MRNFTRTLEPEGITEMPQEGLRFVVQHHLARRDHYDLRLEWDGAMLSWAVPKGPSYNTWDKRLAVQVEDHPLEYRHFEGTIPKGEYGGGVVMLWDEGFWEPYVDVDGGLHEGMLKFVLKGRRLKGRWALVRMKGKAGDKKDNWLLLKEKDDYVQTADGISQFTTSLEHHHHHH,soluble
23,MGSDKIHHHHHHMFELHPDSSTPLVNQIIDGLRELIDNQTLKPGAKVPSIRAFAASYSVSTFTVVEAYDRLVAQGLLVSRGNAGFFVNRAAGELLEQHNTEADTSRPTFNSEWYLQQIFEIRQLPYKPGCGWLPNDWMYEDGLRRGLRQVAGSPLELSGYGDPMGLMELRALTAQNLQQELSIVANPAQLMLTHGASQALDLAARTLVRPGDVVLVDDPGYPNLMSILRTQGATLVGVPRTPAGYDLNQLEQLLSHHRPTAFFTQPHLHSPTCSRTPLPQLHRLLQLASQHGFRLVENNLYADMVAEPQPCLASLDHLQQVVYVGSYSKSISPNVRVGYMLANPELMQKLLHLKMRSGLTTSQVMERVVYAAIIDGRWRKHLKRLRQRLAEAHQEVGRHLHRLGFELFTESDEGMYIWTRHPAIPDSAALLDDALEKGIMLGPGQLFMVDAKATGWMRFNVAFSTDPAMWELLEKVLVKHVRRSGM,not soluble
